Tests used:
[1] = molecular target: γδ T cell receptor on human γδ T cells (AG000003021) (human); assay: flow cytometry, DRC binding at 37°C on human γδ T cells
Method: (§1) Binding of antibodies to human γδ T cells or SKW cell lines expressing Vγ9/Vδ2, Vγ9/Vδ2 or Vγ5/Vδ2 was carried out by flow cytometry. Briefly, the cells were centrifuged at 300×g for 5 minutes and the pellet was resuspended in 34 ml fresh media (in RPMI+10% FBS). 50 μL of the cells were then plated (44K cells/well) into assay plates. Samples were incubated for one hour at 37° C. in tissue culture (TC) incubator followed by wash steps by adding 100 μl FACS staining buffer. Secondary detention antibodies (A647 conjugated anti-human IgG Fc specific antibody (2 μg/mL) along with AF488 anti mouse CD3, clone OKT3 at 1 ug/mL) were added at 50 μL/well to appropriate wells according to the plate map. After incubating for 60 minutes at 37° C. in the TC incubator, cells were again washed as described above. This is followed by resuspension in 20 μL/well running buffer containing 1:1000 dilution of Sytox blue dead cell stain and the plates were run on iQue Screener.
(§2) Gating and data analysis: Human anti-human Vγ9 antibody (VG9B2 mAb at 10 nM) was used to mark the gating of positive population. All cells were first gated for singlets on SCS-A vs. SCS-H dot plot, live/dead followed by CD3 positive population, and this subset of CD3 positive population was gated for Vγ9 positive binding using positive control mAb. Cells were also assessed for cell binding of control mAbs by RL1 (A647) Geomeans from the live cell population. Advanced metrics were used and normalization metrics were chosen to calculate fold over background wells containing secondary antibody alone (designated as ‘background’ within ForeCyt settings).

[2] = molecular target: T1, γδ T cell receptor on human γδ T cells (human); assay: flow cytometry, dose-response binding at 37 C on human γδ T cells
T1 construct: also called AG000003021 (γδ T cells)
Method: as §1, §2

| Binder | Max. Activity [1] | Max. Activity [2] |
| --- | --- | --- |
| VG9B429 (antibody, human IgG1, kappa, IgG1, kappa) heavy: not shown light: DIQMTQSPSSVSASVGDRVTITCRASQGINSWLAWYQQKPGNAPKLLIYAASSLQSGVPSRFSGIGSGTDFIFTISSLQPEDFASYYCQQANSFPWTFGQGTRLEIKRTVAAPSVFIFPPSDEQLKSGTASVVCLLNNFYPREAKVQWKVDNALQSGNSQESVTEQDSKDSTYSLSSTLTLSKADYEKHKVYACEVTHQGLSSPVTKSFNRGEC | 3640 fold over background |  |
| VG9B143 (antibody, human IgG1, lambda, V domains shown, IgG1, lambda; also called antibody #31) VH: EVQLVESGGGLVQPGGSLRLSCAASGFTFSTYGMNWVRQAPGKGLEWISYISTSSYTIYYSDSVKGRFTVSRDNAKNSLYLQMNSLRDEDTAVYYCAREGDWWYFDLWGRGTTVTVSS VL: QSALTQPASVSGSPGQSITISCTGTSSDVGGYNYVSWYQQHPGKAPKLMIYEVSNRPSGVSYRFSGSKSGNTASLTISGLQAEDEADYYCSSYTSSSTLVFGGGTKLTVLG |  | 2630 fold over background |
| VG9B418 (antibody, human IgG1, kappa, IgG1, kappa; also called antibody #32) heavy: not shown light: EIVLTQSPGTLSLSPGDRATLSCRASQSVASSYLAWYQQKPGQSPRLLIYGASSRATGIPDRFSGSGSGTDFTLTISRLEPEDFAVYYCQQYGSSPPYTFGQGTKLEIKRTVAAPSVFIFPPSDEQLKSGTASVVCLLNNFYPREAKVQWKVDNALQSGNSQESVTEQDSKDSTYSLSSTLTLSKADYEKHKVYACEVTHQGLSSPVTKSFNRGEC |  | 2630 fold over background |
| VG9B472 (antibody, human IgG1, kappa, V domains shown, IgG1, kappa; also called antibody #33) VH: QVQLVESGGGLVKPGGSLRLSCAASGFTFSHYDMNWVRQAPGKGLEWVSSISSSSSYIFYADSVKGRFTISRDNAKNSLLLQMNSLRAEDTAVYHCARDRGVGDTSDYYSFGLDVWGQGTTVTVSS VL: EIVLTQSPSSLSASVGDRVTITCRASQGIATYLAWYQQKPGKVPNLLIYAASTLQSGVPSRFSGSGSGTDFTLTISSLQPEDVATYYCQKYNSAPPWTFGQGTKVEIKR |  | 2620 fold over background |
| VG9B421 (antibody, human IgG1, kappa, IgG1, kappa; also called antibody #34) heavy: not shown light: DIQMTQSPSSVSASVGDRVTITCRASQGINSWLAWYQQKPGNAPKLLIYAASSLQSGVPSRFSGIGSGTDFIFTISSLQPEDFASYYCQQANSFPWTFGQGTRLEIKRTVAAPSVFIFPPSDEQLKSGTASVVCLLNNFYPREAKVQWKVDNALQSGNSQESVTEQDSKDSTYSLSSTLTLSKADYEKHKVYACEVTHQGLSSPVTKSFNRGEC |  | 2610 fold over background |
| VG9B88 (antibody, human IgG1, kappa, V domains shown, IgG1, kappa; also called antibody #35) VH: EVQLVESGGGLVKPGGSLRLSCAVSGFTFSSYTMNWVRQAPGKGLEWVSSISTSSSYIDYADSVKGRFTISRDNAKKSLYLQMNSLRAEDTAVYYCARDGDMVAPIKGSFDYWGQGTLVTVSS VL: EIVLTQSPLSLPVTPGEPASISCRSSQSLLNSDDGNTYLDWYLQKPGQSPQLLIYTLSYRASGVPDRFSGSGSGTDFTLKISRVEAEDVGVYYCMQRIEFPITFGQGTRLEIKR |  | 2560 fold over background |
| VG9B384 (antibody, human IgG1, lambda, V domains shown, IgG1, lambda; also called antibody #36) VH: QVQLQESGPALVKPTQTLTLTCTFSGFSLSSSGMCVSWIRQPPGKALEWLTLIDWFDDKYYSTSLKTRLTISKDTSKNQVVLTMTNMDPVDTATYYCARIRGTGAYYYGLDVWGQGTMVTVSS VL: SYELMQPPSVSVSPGQTASITCSGNELGDKYASWYQQQPGQSPVLVIYQDNKRPSGIPERFSGSNSGNTATLTISGTQAMDEADYYCQAWDSSKVVFGGGTKLTVLG |  | 2550 fold over background |
| VG9B413 (antibody, human IgG1, kappa, IgG1, kappa; also called antibody #37) heavy: not shown light: EIVMTQSPGTLSLSPGDRATLSCRASQSVASSYLAWYQQKPGQSPRLLIYGASSRATGIPDRFSGSGSGTDFTLTISRLEPEDFAVYYCQQYGSSPPYTFGQGTKVEIKRTVAAPSVFIFPPSDEQLKSGTASVVCLLNNFYPREAKVQWKVDNALQSGNSQESVTEQDSKDSTYSLSSTLTLSKADYEKHKVYACEVTHQGLSSPVTKSFNRGEC |  | 2470 fold over background |
| VG9B80 (antibody, human IgG1, kappa, V domains shown, IgG1, kappa) VH: EVQLVQSGGGLVKSGGSLRLSCAASGFTFSTYSMNWVRQAPGKGLEWVSSISSSSSYIFYADSVKGRIIISRDNAKNSLYLQMNSVRADDTAVYYCAKDGELGVFDYWGQGTLVTVSS VL: EIVLTQSPGTLSLSAGERATLSCRASQSISSSYLAWYQQKPGQAPRVLIYGPSGRATGIPDRFRGSGSGTDFTLTISRLEPEDFAVYYCQQFGRSPLTFGGGTKVEIKR | 3480 fold over background |  |
| VG9B54 (antibody, human IgG1, kappa, V domains shown, IgG1, kappa) VH: EVQLVESGGGLVKPGGSLRLSCAASGFAFSSYSLTWVRQAPGKGLEWVSSISSSSSYIFYADSVKGRFTISRDNAKNSLYLQMNSLRAEDTAVYYCATDGELGPFDYWGQGTTVTVSS VL: EIVMTQSPGTLSLSPGERATLSCRASQSVSSSYLAWFQQKPGQAPRRLIYGASSRATGIPDRFSGSGSGTDFTLTISRLEPEDFAVYYCQQYGRSPLTFGGGTKVEIKR | 4290 fold over background |  |
| VG9B414 (antibody, human IgG1, kappa, IgG1, kappa) heavy: not shown light: EIVMTQSPSSVSASVGDRVTITCRASQGINSWLAWYQQKPGNAPKLLIYAASSLQSGVPSRFSGIGSGTDFIFTISSLQPEDFASYYCQQANSFPWTFGQGTRLEIKRTVAAPSVFIFPPSDEQLKSGTASVVCLLNNFYPREAKVQWKVDNALQSGNSQESVTEQDSKDSTYSLSSTLTLSKADYEKHKVYACEVTHQGLSSPVTKSFNRGEC | 3300 fold over background |  |
| VG9B195 (antibody, human IgG1, lambda, V domains shown, IgG1, lambda) VH: EVQLVESGGGLVKPGGSLRLSCAASGFTFSPYTMNWVRQAPGKGLEWVSSISSSSSYMYYADSVKGRFTISRDNAKNSLYLQMNSLRAEDTAVYYCARDGDLVGPTYYFDYWGQGTLVTVSS VL: SYELMQPPSVSVSPGQTASITCSGDKLGDKYACWYQQKPGQSPVLVIYQHNKRPSGIPERFSGSNSGKTATLTISGTQAMDEADYYCQAWDSTTVVFGGGTKLTVLG | 3260 fold over background |  |
| VG9B140 (antibody, human IgG1, kappa, V domains shown, IgG1, kappa) VH: EVQLVESGGGLVKPGGSLRLSCAGSGFTFRSYDMNWVRQAPGKGLEWVSSISTSSGYIYYADSVKGRFTISRDNAKNSLSLQMNSLRAEDTAVFYCARDRGIAVAGDYYYGMDVWGQGTMVTVSS VL: not shown | 3230 fold over background |  |
| VG9B46 (antibody, human IgG1, kappa, V domains shown, IgG1, kappa) VH: EVQLVESGGGLVKPGGSLRLSCEASGFTFSINSMNWVRQAPGKGLEWVSSISSTSDYIFNADSVKGRFTISRDNAKNSLYLQMNSLRAEDTAVYYCVRDDVFGAFDIWGQGTMVTVSS VL: EIVLTQSPGTLSLSPGERATLSCRTSQSVSRSYLGWYQQKPGQPPRLLIFGSSSRATGIPDRFSGSGSGTDFTLTISRLEPEDFAVYYCQQYSRSPLTFGGGTKVDIKR | 3210 fold over background |  |
| VG9B416 (antibody, human IgG1, kappa, IgG1, kappa) heavy: not shown light: EIVLTQSPGTLSLSPGDRATLSCRASQSVASSYLAWYQQKPGQSPRLLIYGASSRATGIPDRFSGSGSGTDFTLTISRLEPEDFAVYYCQQYGSSPPYTFGQGTKLEIKRTVAAPSVFIFPPSDEQLKSGTASVVCLLNNFYPREAKVQWKVDNALQSGNSQESVTEQDSKDSTYSLSSTLTLSKADYEKHKVYACEVTHQGLSSPVTKSFNRGEC | 3120 fold over background |  |
| VG9B428 (antibody, human IgG1, kappa, IgG1, kappa; also called antibody #18) heavy: not shown light: EIVMTQSPSSVSASVGDRVTITCRASQGINSWLAWYQQKPGNAPKLLIYAASSLQSGVPSRFSGIGSGTDFIFTISSLQPEDFASYYCQQANSFPWTFGQGTKVEIKRTVAAPSVFIFPPSDEQLKSGTASVVCLLNNFYPREAKVQWKVDNALQSGNSQESVTEQDSKDSTYSLSSTLTLSKADYEKHKVYACEVTHQGLSSPVTKSFNRGEC |  | 2980 fold over background |
| VG9B430 (antibody, human IgG1, kappa, V domains shown, IgG1, kappa; also called antibody #19) VH: EVQLLESGGGLVKPGGSLRLSCSASGFTFSSYDMNWVRQAPGKGLEWVSSISSSSSYIYYADSVKGRFTISRDNAKNSLYLQMNSLRAEDTAVYHCARDVGVTTDYYYYGMDVWGQGTMVTVSS VL: EIVLTQSPGTLSLSPGDRATLSCRASQSVASSYLAWYQQKPGQSPRLLIYGASSRATGIPDRFSGSGSGTDFTLTISRLEPEDFAVYYCQQYGSSPPYTFGQGTKLEIKR |  | 2970 fold over background |
| VG9B98 (antibody, human IgG1, kappa, V domains shown, IgG1, kappa; also called antibody #21) VH: EVQLVQSGGDLVKSGGSLRLSCAASGFTFSSYSMYWVRQAPGKGLEWVSSIGSSSTYIFYADSVKGRFTISRDNAMTSLYLQMNRLGAEDSAVYYCARDGELGPFEYWGQGTLVTVSS VL: EIVLTQSPGTLSLSPGERATLSCRASQSVSTSYLAWFQQKPGQAPRLLIFGTSSRATGIPDRFSGSGSGTDFTLTISRLEPEDFAVYHCLQYGRSPLTFGGGTKVDIKR |  | 2880 fold over background |
| VG9B73 (antibody, human IgG1, kappa, V domains shown, IgG1, kappa; also called antibody #22) VH: EVQLVQSGGGLVKPGGSLRLSCAASGFTFSNYDMNWVRQAPGKGLEWVSSISSSSSYIYYADSVKGRFTISRDNARNSLFLQMSSLRAEDTAVYYCAREIGVTGTTYYQDYGMDVWGQGTTVTVSS VL: EIVMTQSPGTLSLSPGERATLSCRASQSFSSNYLAWYQQKPGQAPRLLIYGASSRATGIPDRFSGSGSGTDFTLTISRLEPEDFALYYCQQYGSSPPFTFGQGTKVEIKR |  | 2840 fold over background |
| VG9B133 (antibody, human IgG1, kappa, V domains shown, IgG1, kappa; also called antibody #23) VH: EVQLVESGGGLVKPGGSLRLSCAAAGFTFSNYDMNWVRQVPGKGLEWVSSISSSSSYIYYADSVKGRFTISRDNAKNSLYLQMNTLRAEDTAVYYCARDLGITGTTMDYYYGMDVWGQGTMVTVSS VL: not shown |  | 2840 fold over background |
